Measurements: article PMC7144902, “Absence of MeCP2 binding to non-methylated GT-rich sequences in vivo”

Assays:
Settings in all cases: protein: recombinant; tags: C-terminal His; label: 32P; blunt
MeCP2[1-205] [1] = molecular target: T1, MeCP2[1-205] (Homo sapiens, UniProt P51608 1-205); experiment: EMSA; similar to GGTGT and mCAC; EMSA: 10 mM Tris-HCl pH 7.5, 150 mM KCl (250 mM for MeCP2[1-486]), 0.1 mg/ml BSA, 5% glycerol, 0.1 mM EDTA, 1 ug poly(dA-dT), 1 ng probe, 20 ul, 30 min on ice
MeCP2[1-486] = MeCP2[1-486] (Homo sapiens, UniProt P51608 1-486); experiment: EMSA; 250 mM KCl; preferred over CG; EMSA: 10 mM Tris-HCl pH 7.5, 150 mM KCl (250 mM for MeCP2[1-486]), 0.1 mg/ml BSA, 5% glycerol, 0.1 mM EDTA, 1 ug poly(dA-dT), 1 ng probe, 20 ul, 30 min on ice
MeCP2[1-205] [2] = molecular target: T1, MeCP2[1-205]; experiment: EMSA; stronger than mCAC and GGTGT; EMSA: 10 mM Tris-HCl pH 7.5, 150 mM KCl (250 mM for MeCP2[1-486]), 0.1 mg/ml BSA, 5% glycerol, 0.1 mM EDTA, 1 ug poly(dA-dT), 1 ng probe, 20 ul, 30 min on ice
MeCP2[1-205] [3] = molecular target: T1, MeCP2[1-205]; experiment: EMSA; background only; EMSA: 10 mM Tris-HCl pH 7.5, 150 mM KCl (250 mM for MeCP2[1-486]), 0.1 mg/ml BSA, 5% glycerol, 0.1 mM EDTA, 1 ug poly(dA-dT), 1 ng probe, 20 ul, 30 min on ice
MeCP2[77-167] = MeCP2[77-167] (Homo sapiens, UniProt P51608 77-167); experiment: EMSA; EMSA: 10 mM Tris-HCl pH 7.5, 150 mM KCl (250 mM for MeCP2[1-486]), 0.1 mg/ml BSA, 5% glycerol, 0.1 mM EDTA, 1 ug poly(dA-dT), 1 ng probe, 20 ul, 30 min on ice
MeCP2[1-205] [4] = molecular target: T1, MeCP2[1-205]; experiment: as above
MeCP2[1-205] [5] = molecular target: T1, MeCP2[1-205]; experiment: EMSA; comparable to mCAC, lower than mCG; EMSA: 10 mM Tris-HCl pH 7.5, 150 mM KCl (250 mM for MeCP2[1-486]), 0.1 mg/ml BSA, 5% glycerol, 0.1 mM EDTA, 1 ug poly(dA-dT), 1 ng probe, 20 ul, 30 min on ice
MeCP2[1-205] [6] = molecular target: T1, MeCP2[1-205]; experiment: EMSA; only marginal effect; EMSA: 10 mM Tris-HCl pH 7.5, 150 mM KCl (250 mM for MeCP2[1-486]), 0.1 mg/ml BSA, 5% glycerol, 0.1 mM EDTA, 1 ug poly(dA-dT), 1 ng probe, 20 ul, 30 min on ice
MeCP2[1-205] [7] = molecular target: T1, MeCP2[1-205]; experiment: EMSA; no significant binding; EMSA: 10 mM Tris-HCl pH 7.5, 150 mM KCl (250 mM for MeCP2[1-486]), 0.1 mg/ml BSA, 5% glycerol, 0.1 mM EDTA, 1 ug poly(dA-dT), 1 ng probe, 20 ul, 30 min on ice

B1: GT5 (dsDNA)
DNA 1: AAGCATGCAATGCCCTGGAAGTGTGTGTGTAATTCTTCTAATAAAAGATGTATCATTTTAAATGC
DNA 2: GCATTTAAAATGATACATCTTTTATTAGAAGAATTACACACACACTTCCAGGGCATTGCATGCTT
MeCP2[1-205] [1]
  binding result: binds

B2: mCG (dsDNA)
DNA 1: AAGCATGCAATGCCCTGGAACGGAATTCTTCTAATAAAAGATGTATCATTTTAAATGC
DNA 2: GCATTTAAAATGATACATCTTTTATTAGAAGAATTCCGTTCCAGGGCATTGCATGCTT
modifications: 5mC at strand 1 position 21; reverse strand the appropriate methylated oligo (position not given)
MeCP2[1-486]
  binding result: binds
MeCP2[1-205] [2]
  binding result: binds

B3: CAC (dsDNA)
DNA 1: AAGCATGCAATGCCCTGGAACACAATTCTTCTAATAAAAGATGTATCATTTTAAATGC
DNA 2: GCATTTAAAATGATACATCTTTTATTAGAAGAATTGTGTTCCAGGGCATTGCATGCTT
MeCP2[1-205] [3]
  binding result: no binding

B4: mCAC (dsDNA)
DNA 1: AAGCATGCAATGCCCTGGAACACAATTCTTCTAATAAAAGATGTATCATTTTAAATGC
DNA 2: GCATTTAAAATGATACATCTTTTATTAGAAGAATTGTGTTCCAGGGCATTGCATGCTT
modifications: 5mC at strand 1 position 21
MeCP2[77-167]
  binding result: binds
MeCP2[1-205] [4]
  binding result: binds

B5: GGTGT (dsDNA)
DNA 1: AAGCATGCAATGCCCTGGAAGGTGTAATTCTTCTAATAAAAGATGTATCATTTTAAATGC
DNA 2: GCATTTAAAATGATACATCTTTTATTAGAAGAATTACACCTTCCAGGGCATTGCATGCTT
MeCP2[1-205] [5]
  binding result: binds

B6: GGTGU (dsDNA)
DNA 1: AAGCATGCAATGCCCTGGAAGGTGUAATTCTTCTAATAAAAGATGTATCATTTTAAATGC
DNA 2: GCATTTAAAATGATACATCTTTTATTAGAAGAATTACACCTTCCAGGGCATTGCATGCTT
modifications: 3' motif T replaced by deoxyuridine
MeCP2[1-205] [6]
  binding result: binds

B7: GT3 (dsDNA)
DNA 1: AAGCATGCAATGCCCTGGAAGTGTGTAATTCTTCTAATAAAAGATGTATCATTTTAAATGC
DNA 2: GCATTTAAAATGATACATCTTTTATTAGAAGAATTACACACTTCCAGGGCATTGCATGCTT
MeCP2[1-205] [1]
  binding result: binds

B8: GT4 (dsDNA)
DNA 1: AAGCATGCAATGCCCTGGAAGTGTGTGTAATTCTTCTAATAAAAGATGTATCATTTTAAATGC
DNA 2: GCATTTAAAATGATACATCTTTTATTAGAAGAATTACACACACTTCCAGGGCATTGCATGCTT
MeCP2[1-205] [1]
  binding result: binds

B9: GT2 (dsDNA)
DNA 1: AAGCATGCAATGCCCTGGAAGTGTAATTCTTCTAATAAAAGATGTATCATTTTAAATGC
DNA 2: GCATTTAAAATGATACATCTTTTATTAGAAGAATTACACTTCCAGGGCATTGCATGCTT
MeCP2[1-205] [1]
  binding result: binds

B10: GT1 (dsDNA)
DNA 1: AAGCATGCAATGCCCTGGAAGTAATTCTTCTAATAAAAGATGTATCATTTTAAATGC
DNA 2: GCATTTAAAATGATACATCTTTTATTAGAAGAATTACTTCCAGGGCATTGCATGCTT
MeCP2[1-205] [7]
  binding result: no binding
